For one data set, the target named is CccR1-220 (Yersinia pseudotuberculosis, UniProt Q666X7 1-220). Kind of data set: ITC. As to conditions: protein: recombinant; tags: His6 (pET28a) or GST (pGEX6p-1).
In another data set the target is CccR201-380 (Yersinia pseudotuberculosis, UniProt Q666X7 201-380). In words: ITC. To be noted: protein: recombinant; tags: His6 (EMSA). In general terms: A gel shift assay detects complexes by their altered migration in electrophoresis.
A further data set concerns the target CccR (Yersinia pseudotuberculosis, UniProt Q666X7 1-380). In words: ITC; stoichiometry 1:2. To be noted: protein: recombinant; tags: His6 (pET28a) or GST (pGEX6p-1); His6 stated for EMSA; chain copies: 2. On the technique in general: In ITC the heat of successive injections is recorded.

We go through one molecule from paper PMC9755527.

B1: PcccR 100-bp ITC probe (dsDNA)
DNA 1: ATATTCAATCGGATGTATCGCCACGGATTTTTGAGATAATCATAAAGTTACTTTTGAGATAATCTACAAATGATAATCTGTTAACATAATGGCTATAAAG
DNA 2: CTTTATAGCCATTATGTTAACAGATTATCATTTGTAGATTATCTCAAAAGTAACTTTATGATTATCTCAAAAATCCGTGGCGATACATCCGATTGAATAT
Usually Kd stands for the free concentration of one partner at which half of the binding sites on the other are occupied at equilibrium, for simple one-to-one binding. With B1, the Kd is 1530 ± 130 µM in the data set with CccR1-220, 6.13 ± 0.11 µM with CccR201-380 and 2.56 ± 0.12 µM with CccR.
